Molecular target: SARS-CoV-1 spike protein (SARS-CoV-1, UniProt P59594 14-1190)
Test: ELISA, hybridoma supernatant

B1: SARS2-38 (antibody, V domains shown)
VH: QVQLKESGPGLVAPSQSLSITCTVSGFSLTRYGVHWVRQPPGKGLEWLGVIWADGSTYYNSALMSRLSISKDNSKSQVFLNMNSLQTDDTAKYYCARDGRGYDDYWGQGTTLTVSS
VL: QIVLTQSPAIMSASPGEKVTMTCSASSTVSFIYWYQQKPGSSPRLLIYDTSNPASGVPVRFSGSGCGTSYYLTISRMEAEDAATYYCQQWNTYPLTFGAGTKLELK
binding result: no binding

— patent US20220340658A1 (WASHINGTON UNIVERSITY, published 2022)
